# Measurements reported in US7741541.
# Target: barnase (ribonuclease from Bacillus amyloliquefaciens) (Bacillus amyloliquefaciens) (UniProt P00648)
# Test: cell-based or functional assay
# Chain of UniProt P00648 (P00648 48-157 limits assumed): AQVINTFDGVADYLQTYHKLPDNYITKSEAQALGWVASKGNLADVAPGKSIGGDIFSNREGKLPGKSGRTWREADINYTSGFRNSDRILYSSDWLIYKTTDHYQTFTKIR
substance,measurement,value
barstar protein (product of the wild type and of the modified barstar gene of Bacillus amyloliquefaciens) (from UniProt P11540 2-90),"Percent of restored (male fertile) plants after transformation of barnase line bn 3.6 with construct A, A9-bs(fm)::TA29-bs(wt)",89.8%
same,"Percent of restored (male fertile) plants after transformation of barnase line bn 3.6 with construct B, TA29-bs(wt)",65.6%
same,"Percent of restored (male fertile) plants after transformation of barnase line bn 3.6 with construct C, A9-bs(wt)",12.7%
same,"Percent of restored (male fertile) plants after transformation of barnase line bn 3.6 with construct D, A9-bs(fm)",10.8%
